Measurements taken from US20090196872A1 (KIRIN BEER, published 2009).

T1: OVA (UniProt P01012 2-386)
T1 construct: also called ovalbumin
T1 sequence: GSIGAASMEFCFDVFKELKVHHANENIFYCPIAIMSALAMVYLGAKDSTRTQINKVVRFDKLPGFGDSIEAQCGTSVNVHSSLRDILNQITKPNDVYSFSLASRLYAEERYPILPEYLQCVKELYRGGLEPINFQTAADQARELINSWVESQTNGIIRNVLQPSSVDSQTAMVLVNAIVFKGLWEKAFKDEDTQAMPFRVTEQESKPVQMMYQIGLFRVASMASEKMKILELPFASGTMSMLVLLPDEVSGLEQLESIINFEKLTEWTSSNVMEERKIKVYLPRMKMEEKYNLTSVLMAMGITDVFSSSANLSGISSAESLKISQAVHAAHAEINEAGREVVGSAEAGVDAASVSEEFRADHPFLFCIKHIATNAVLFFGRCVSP

B1: human anti-M2 monoclonal antibody no. Z3G1 (recombinant IgG1 type Z3, CHO; ATCC PTA-5967) (antibody, V domains shown)
VH: QVQLVQSGAEVKKPGASVKVSCKASGYTFTSYGISWVRQAPGQGLEWMGWISAYNGNTNYAQKLQGRVTMTTDTSTSTAYMELRSLRSDDTAVYYCARAAAGGYFQHWGQGTLVTVSS
VL: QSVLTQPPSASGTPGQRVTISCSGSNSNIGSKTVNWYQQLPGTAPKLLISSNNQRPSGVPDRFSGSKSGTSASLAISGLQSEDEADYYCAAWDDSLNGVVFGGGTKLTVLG
B2: human anti-M2 antibody Z3 (original, IgG3, hybridoma 113Z-3) (antibody, V domains shown)
VH: B1 VH
VL: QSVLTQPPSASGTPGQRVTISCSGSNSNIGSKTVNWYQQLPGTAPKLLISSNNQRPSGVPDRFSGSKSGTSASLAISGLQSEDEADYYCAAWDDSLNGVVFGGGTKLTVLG

What was measured:
M2GHTGKS peptide = M2GHTGKS peptide (influenza A virus); assay: peptide ELISA
Experimental: (§1) ELISA: Antibody titers and antibody specificity as well as antibody production by hybridomas were determined by ELISA. […] After washing twice with PBS/0.1% Tween 20, plates were blocked with PBS/1% BSA (Sigma, St. Louis, Mo.) at 37° C. for 30 min., the antibody or serum was added to the wells and the plates were incubated at 37° C. for 1 hr. After washing four times, diluted HRP conjugated goat anti-human Immunoglobulin gamma chain specific antibody (Jackson Immunoresearch Laboratory, West Grove, Pa.) was added to the wells and incubated for 1 hr at 37° C. After washing four times, TMB substrate solution (DAKO, CA) was added and incubated for 30 min at room temperature. The optical density at 450 nm was measured by a microplate reader.

OVA = molecular target: T1, OVA; assay: ELISA; positive = more than 2-fold OD450 of control
bovine serum albumin [1] = molecular target: T2, bovine serum albumin (bovine, UniProt P02769 25-607); assay: as above
T2 construct: carrier for immunization
T2 sequence (P02769 25-607 limits assumed): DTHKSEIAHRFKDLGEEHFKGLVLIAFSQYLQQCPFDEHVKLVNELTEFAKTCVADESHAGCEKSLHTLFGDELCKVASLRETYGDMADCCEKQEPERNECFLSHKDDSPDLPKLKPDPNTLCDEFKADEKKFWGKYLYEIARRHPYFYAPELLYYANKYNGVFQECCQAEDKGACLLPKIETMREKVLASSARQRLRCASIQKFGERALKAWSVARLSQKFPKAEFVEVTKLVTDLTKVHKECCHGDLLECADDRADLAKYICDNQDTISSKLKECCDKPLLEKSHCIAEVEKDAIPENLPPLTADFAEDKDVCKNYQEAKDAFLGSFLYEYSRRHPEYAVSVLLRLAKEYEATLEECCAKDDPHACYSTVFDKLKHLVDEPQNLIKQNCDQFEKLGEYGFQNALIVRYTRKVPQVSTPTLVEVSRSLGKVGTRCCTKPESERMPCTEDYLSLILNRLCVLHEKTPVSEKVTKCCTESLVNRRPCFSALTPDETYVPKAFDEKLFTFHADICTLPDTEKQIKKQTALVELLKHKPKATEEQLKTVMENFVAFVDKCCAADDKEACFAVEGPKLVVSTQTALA

M2EG peptide = M2EG peptide (influenza A virus); assay: peptide ELISA, grade relative to wild-type M2
Experimental: as §1

M2TGS peptide = M2TGS peptide (influenza A virus); assay: peptide ELISA, grade relative to wild-type M2
Experimental: as §1

M2TGEK peptide = M2TGEK peptide (influenza A virus); assay: peptide ELISA, grade relative to wild-type M2
Experimental: as §1

M2LGS peptide = M2LGS peptide (influenza A virus); assay: peptide ELISA, grade relative to wild-type M2
Experimental: as §1

M2KGENS peptide = M2KGENS peptide (influenza A virus); assay: peptide ELISA, grade relative to wild-type M2
Experimental: as §1

M2HTGEKS peptide = M2HTGEKS peptide (influenza A virus); assay: peptide ELISA, grade relative to wild-type M2
Experimental: as §1

M2TDGEKS peptide = M2TDGEKS peptide (influenza A virus); assay: peptide ELISA, grade relative to wild-type M2
Experimental: as §1

bovine serum albumin [2] = molecular target: T2, bovine serum albumin; assay: ELISA

Row | Binder | binding result (M2GHTGKS peptide) | binding result (OVA) | binding result (bovine serum albumin [1]) | binding result (M2EG peptide) | binding result (M2TGS peptide) | binding result (M2TGEK peptide) | binding result (M2LGS peptide) | binding result (M2KGENS peptide) | binding result (M2HTGEKS peptide) | binding result (M2TDGEKS peptide) | binding result (bovine serum albumin [2])
1 | B1 | no binding (tested: <10% of binding to wild-type M2 peptide) | no binding | no binding | binds | binds | binds | binds | binds | binds | binds | –
2 | B2 | – | – | – | – | – | – | – | – | – | – | no binding
